Blank lines part the entries; values can stand above or below the binder they belong to.
Molecular target: T1, human transferrin receptor 1 (hTfR1) on cell surfaces (human, UniProt P02786 1-760)
T1 construct: Endogenous receptor on hCMEC/D3, THP-1, K562 and Ramos cells; also called CD71; endogenous hTfR1
Test: flow cytometry on Ramos cells (hTfR1 on the surface), Fc receptors blocked, overnight at 4 °C, detection with anti-human IgG-Alexa Fluor 488
Description: Binding to hTfR1 on cells was measured on the immortalized human B lymphocyte cell line Ramos (Sigma, cat: 85030802). This cell line is known for expressing high levels of hTfR1 on the cell surface. Fcγ receptors were blocked using Fc receptor blocker (Innovex biosciences, #NB309-4X-40) for 30 min at 4° C., after which the cells were washed in PBS. The cells were seeded in a 96 well V bottom plate (#249570, Thermo Scientific Nunc), and serially diluted Gen 2A constructs were added and the plate was incubated at 4° C. overnight. The cells were washed with PBS with 1% BSA and then fixed with freshly prepared 4% formaldehyde (Thermo Scientific Pierce, #28906) diluted in PBS for 15 min at room temperature. The cells were washed with PBS containing 1% BSA, and then stained. […] Staining was carried out for 30 min at 4° C. After incubation with the detection reagent, cells were washed with PBS containing 1% BSA. The cells were finally resuspended in 200 μl PBS with 1% BSA and acquired using a BD FACSLyric flow cytometer system (BD Biosciences). Samples were analyzed using flowJo software (BD Biosciences).

T1 sequence (P02786 whole entry): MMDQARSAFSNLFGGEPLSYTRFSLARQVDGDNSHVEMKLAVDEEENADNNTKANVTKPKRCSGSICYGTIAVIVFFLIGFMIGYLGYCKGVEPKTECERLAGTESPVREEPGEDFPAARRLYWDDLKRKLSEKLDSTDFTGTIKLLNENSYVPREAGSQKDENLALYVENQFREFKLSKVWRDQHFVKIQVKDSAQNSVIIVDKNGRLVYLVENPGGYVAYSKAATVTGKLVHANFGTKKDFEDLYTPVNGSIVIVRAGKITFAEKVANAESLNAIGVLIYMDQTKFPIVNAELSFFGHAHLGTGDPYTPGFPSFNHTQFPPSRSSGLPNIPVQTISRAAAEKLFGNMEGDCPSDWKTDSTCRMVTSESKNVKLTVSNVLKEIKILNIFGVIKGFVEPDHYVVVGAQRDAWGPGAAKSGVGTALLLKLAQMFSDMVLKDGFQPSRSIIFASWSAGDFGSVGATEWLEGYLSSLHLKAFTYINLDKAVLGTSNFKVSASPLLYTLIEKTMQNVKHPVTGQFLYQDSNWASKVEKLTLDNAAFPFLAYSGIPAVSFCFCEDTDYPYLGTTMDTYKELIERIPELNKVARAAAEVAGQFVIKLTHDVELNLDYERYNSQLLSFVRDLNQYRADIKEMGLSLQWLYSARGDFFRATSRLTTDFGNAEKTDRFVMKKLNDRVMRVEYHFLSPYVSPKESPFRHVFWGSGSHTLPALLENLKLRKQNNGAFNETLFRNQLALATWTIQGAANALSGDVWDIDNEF

binding result: binds
B1: 2A-3 #1 (bispecific antibody, human IgG1, kappa)
heavy: not shown
chain: DIVMTQAPLSLPVSLGDQASISCRSSQSIVHSNGNTYLEWYLQKPGQSPKLLIYKVSNRFSGVPDRFSGSGSGTDFTLKISRVEAEDLGIYYCFQGSHVPPTFGGGTKLEIKRTVAAPSVFIFPPSDEQLKSGTASVVCLLNNFYPREAKVQWKVDNALQSGNSQESVTEQDSKDSTYSLSSTLTLSKADYEKHKVYACEVTHQGLSSPVTKSFNRGECGGGGSEVQLVQSGAEVKKPGSSVKVSCKASGYIFTDYNMDWVRQAPGQGLEWIGDINPDADTTSYNEKFKGRATLTVDKSTSTAYMELSSLRSEDTAVYYCARGGYSGSSYYHPMDYWGQGTLVTVSSGGGGSGGGGSGGGGSDIQMTQSPSSVSASVGDRVTITCKSSQSLLYSTNQKNYLAWYQQKPGKAPKLLIYWASTRESGVPSRFSGSGSGTDFTLTISSLQPEDFATYYCQQYFIYPRTFGQGTKVEIKGGGGSGGGGSGGGGSGGGGSDIVMTQAPLSLPVSLGDQASISCRSSQSIVHSNGNTYLEWYLQKPGQSPKLLIYKVSNRFSGVPDRFSGSGSGTDFTLKISRVEAEDLGIYYCFQGSHVPPTFGGGTKLEIKRTVAAPSVFIFPPSDEQLKSGTASVVCLLNNFYPREAKVQWKVDNALQSGNSQESVTEQDSKDSTYSLSSTLTLSKADYEKHKVYACEVTHQGLSSPVTKSFNRGEC
notes: also called Gen 2A construct #1; VH first

binding result: binds
B2: 2A-3 #4 (bispecific antibody, human IgG1, kappa)
heavy: not shown
chain: DIVMTQAPLSLPVSLGDQASISCRSSQSIVHSNGNTYLEWYLQKPGQSPKLLIYKVSNRFSGVPDRFSGSGSGTDFTLKISRVEAEDLGIYYCFQGSHVPPTFGGGTKLEIKRTVAAPSVFIFPPSDEQLKSGTASVVCLLNNFYPREAKVQWKVDNALQSGNSQESVTEQDSKDSTYSLSSTLTLSKADYEKHKVYACEVTHQGLSSPVTKSFNRGECGGGGSEVQLVQSGAEVKKPGSSVKVSCKASGYIFTDYNMDWVRQAPGQGLEWIGDINPDADTTSYNEKFKGRATLTVDKSTSTAYMELSSLRSEDTAVYYCARGGYSGSSYYHPMDYWGQGTLVTVSSGGGGSGGGGSGGGGSDIQMTQSPSSVSASVGDRVTITCKSSQSLLYSTNQKNYLAWYQQKPGKAPKLLIYWASTRESGVPSRFSGSGSGTDFTLTISSLQPEDFATYYCQQYFIYPRTFGQGTKVEIKGGGGSGGGGSGGGGSGGGGSGGGGSDIVMTQAPLSLPVSLGDQASISCRSSQSIVHSNGNTYLEWYLQKPGQSPKLLIYKVSNRFSGVPDRFSGSGSGTDFTLKISRVEAEDLGIYYCFQGSHVPPTFGGGTKLEIKRTVAAPSVFIFPPSDEQLKSGTASVVCLLNNFYPREAKVQWKVDNALQSGNSQESVTEQDSKDSTYSLSSTLTLSKADYEKHKVYACEVTHQGLSSPVTKSFNRGEC
notes: also called Gen 2A construct #4; VH first

binding result: binds
B3: 2A-3 #2 (bispecific antibody, human IgG1, kappa)
heavy: not shown
chain: DIVMTQAPLSLPVSLGDQASISCRSSQSIVHSNGNTYLEWYLQKPGQSPKLLIYKVSNRFSGVPDRFSGSGSGTDFTLKISRVEAEDLGIYYCFQGSHVPPTFGGGTKLEIKRTVAAPSVFIFPPSDEQLKSGTASVVCLLNNFYPREAKVQWKVDNALQSGNSQESVTEQDSKDSTYSLSSTLTLSKADYEKHKVYACEVTHQGLSSPVTKSFNRGECGGGGSGGGGSEVQLVQSGAEVKKPGSSVKVSCKASGYIFTDYNMDWVRQAPGQGLEWIGDINPDADTTSYNEKFKGRATLTVDKSTSTAYMELSSLRSEDTAVYYCARGGYSGSSYYHPMDYWGQGTLVTVSSGGGGSGGGGSGGGGSDIQMTQSPSSVSASVGDRVTITCKSSQSLLYSTNQKNYLAWYQQKPGKAPKLLIYWASTRESGVPSRFSGSGSGTDFTLTISSLQPEDFATYYCQQYFIYPRTFGQGTKVEIKGGGGSGGGGSGGGGSGGGGSDIVMTQAPLSLPVSLGDQASISCRSSQSIVHSNGNTYLEWYLQKPGQSPKLLIYKVSNRFSGVPDRFSGSGSGTDFTLKISRVEAEDLGIYYCFQGSHVPPTFGGGTKLEIKRTVAAPSVFIFPPSDEQLKSGTASVVCLLNNFYPREAKVQWKVDNALQSGNSQESVTEQDSKDSTYSLSSTLTLSKADYEKHKVYACEVTHQGLSSPVTKSFNRGEC
notes: also called Gen 2A construct #2; VH first
